Assay results from US10428140B2, “Anti-EphA4 antibody” (EISAI R&D MANAGEMENT CO., LTD., priority 2015, dated 2019).

T1: human EphA1 (Homo sapiens, UniProt P21709)
T1 construct: a protein of the extracellular region of each human Eph receptor fused with the SEAP protein and the His tag; made in house; host or cells: Expi293F cells (culture supernatant)
T1 sequence (P21709 26-547 limits assumed): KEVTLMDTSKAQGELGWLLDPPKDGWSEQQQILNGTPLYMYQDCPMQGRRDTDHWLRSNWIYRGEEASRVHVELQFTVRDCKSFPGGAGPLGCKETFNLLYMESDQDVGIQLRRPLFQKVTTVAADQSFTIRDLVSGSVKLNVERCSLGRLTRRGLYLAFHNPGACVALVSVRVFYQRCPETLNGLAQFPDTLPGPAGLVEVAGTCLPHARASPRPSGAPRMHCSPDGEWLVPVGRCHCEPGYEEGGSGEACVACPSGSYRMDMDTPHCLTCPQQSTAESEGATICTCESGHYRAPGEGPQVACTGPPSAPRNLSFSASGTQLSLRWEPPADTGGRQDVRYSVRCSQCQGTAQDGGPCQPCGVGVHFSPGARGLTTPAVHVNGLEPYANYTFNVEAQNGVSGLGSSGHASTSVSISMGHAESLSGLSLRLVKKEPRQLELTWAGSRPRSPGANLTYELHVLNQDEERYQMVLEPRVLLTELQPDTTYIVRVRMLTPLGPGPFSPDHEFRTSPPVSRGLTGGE

T2: human EphA6 (Homo sapiens, UniProt Q9UF33)
T2 construct: a protein of the extracellular region of each human Eph receptor fused with the SEAP protein and the His tag; made in house; host or cells: Expi293F cells (culture supernatant)
T2 sequence (Q9UF33 23-550 limits assumed): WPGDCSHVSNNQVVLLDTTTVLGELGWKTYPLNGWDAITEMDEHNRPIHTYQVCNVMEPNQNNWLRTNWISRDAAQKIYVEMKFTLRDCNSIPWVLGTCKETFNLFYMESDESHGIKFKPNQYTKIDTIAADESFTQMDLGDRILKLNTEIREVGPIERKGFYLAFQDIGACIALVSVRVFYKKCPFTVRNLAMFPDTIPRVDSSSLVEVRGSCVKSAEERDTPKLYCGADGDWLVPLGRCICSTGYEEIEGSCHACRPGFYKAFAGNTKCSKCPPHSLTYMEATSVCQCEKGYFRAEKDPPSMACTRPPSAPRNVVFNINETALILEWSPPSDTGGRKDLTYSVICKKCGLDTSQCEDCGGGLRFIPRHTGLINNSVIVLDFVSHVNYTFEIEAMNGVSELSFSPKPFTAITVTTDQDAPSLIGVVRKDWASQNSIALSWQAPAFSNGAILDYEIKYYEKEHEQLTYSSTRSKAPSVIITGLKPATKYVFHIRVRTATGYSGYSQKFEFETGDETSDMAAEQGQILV

T3: human EphA8 (Homo sapiens, UniProt P29322)
T3 construct: a protein of the extracellular region of each human Eph receptor fused with the SEAP protein and the His tag; made in house; host or cells: Expi293F cells (culture supernatant)
T3 sequence (P29322 28-542 limits assumed): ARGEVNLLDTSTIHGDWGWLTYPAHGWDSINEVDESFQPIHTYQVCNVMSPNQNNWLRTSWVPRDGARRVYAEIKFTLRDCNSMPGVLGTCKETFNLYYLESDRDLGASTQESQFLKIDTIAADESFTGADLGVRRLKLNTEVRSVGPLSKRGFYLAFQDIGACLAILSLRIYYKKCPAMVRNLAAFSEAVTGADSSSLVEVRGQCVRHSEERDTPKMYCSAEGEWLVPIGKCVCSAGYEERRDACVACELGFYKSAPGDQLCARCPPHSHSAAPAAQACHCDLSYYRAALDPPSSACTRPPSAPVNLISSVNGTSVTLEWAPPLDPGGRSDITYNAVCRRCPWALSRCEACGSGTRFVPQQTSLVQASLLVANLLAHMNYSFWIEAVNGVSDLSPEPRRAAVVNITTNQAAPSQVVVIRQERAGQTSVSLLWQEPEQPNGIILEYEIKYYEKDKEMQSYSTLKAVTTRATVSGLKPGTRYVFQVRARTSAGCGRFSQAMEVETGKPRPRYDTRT


What was measured:
Experiment in all cases: Selectivity ELISA of humanized antibodies for human Eph receptor
Assay type in all cases: binding
human EphA1 = target: T1, human EphA1; conditions: coated protein 1 nM
Procedure, shortened: (§1)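 Steps: coat anti-His antibody; block, then 1% BlockAce overnight at 4 °C; add Eph receptor extracellular region-SEAP-His (1 nM final) 1 h; add humanized antibody 1 h; add HRP anti-IgG 1 h; develop TMB; stop with acid; read 450 nm.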

human EphA2 = target: T4, human EphA2 (Homo sapiens, UniProt P29317); conditions: coated protein 1 nM
T4 construct: a protein of the extracellular region of each human Eph receptor fused with the SEAP protein and the His tag; made in house; host or cells: Expi293F cells (culture supernatant)
Procedure, shortened: as §1

human EphA4 = target: T5, human EphA4 (Homo sapiens, UniProt P54764); conditions: coated protein 1 nM; reference set to 100%
T5 construct: made in house; not restated for the human SEAP-His protein
Procedure, shortened: as §1

human EphA6 = target: T2, human EphA6; conditions: coated protein 1 nM
Procedure, shortened: as §1

human EphA8 = target: T3, human EphA8; conditions: coated protein 1 nM
Procedure, shortened: as §1

T4 sequence (P29317 24-537 limits assumed): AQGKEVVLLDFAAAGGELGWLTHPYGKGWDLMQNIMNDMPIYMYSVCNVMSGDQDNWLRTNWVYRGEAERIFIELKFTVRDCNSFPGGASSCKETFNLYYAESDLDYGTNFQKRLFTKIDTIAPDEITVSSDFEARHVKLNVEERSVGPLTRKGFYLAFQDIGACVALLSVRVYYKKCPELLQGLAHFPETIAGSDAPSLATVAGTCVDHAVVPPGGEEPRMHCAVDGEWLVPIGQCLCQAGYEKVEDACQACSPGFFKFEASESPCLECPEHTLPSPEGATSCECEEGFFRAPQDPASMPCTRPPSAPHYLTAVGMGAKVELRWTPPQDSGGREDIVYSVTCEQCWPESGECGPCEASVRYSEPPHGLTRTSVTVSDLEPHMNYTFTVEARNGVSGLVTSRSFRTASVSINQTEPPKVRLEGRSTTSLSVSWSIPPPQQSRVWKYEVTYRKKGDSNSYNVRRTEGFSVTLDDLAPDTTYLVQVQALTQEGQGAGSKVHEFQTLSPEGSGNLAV
T5 sequence (P54764 20-547): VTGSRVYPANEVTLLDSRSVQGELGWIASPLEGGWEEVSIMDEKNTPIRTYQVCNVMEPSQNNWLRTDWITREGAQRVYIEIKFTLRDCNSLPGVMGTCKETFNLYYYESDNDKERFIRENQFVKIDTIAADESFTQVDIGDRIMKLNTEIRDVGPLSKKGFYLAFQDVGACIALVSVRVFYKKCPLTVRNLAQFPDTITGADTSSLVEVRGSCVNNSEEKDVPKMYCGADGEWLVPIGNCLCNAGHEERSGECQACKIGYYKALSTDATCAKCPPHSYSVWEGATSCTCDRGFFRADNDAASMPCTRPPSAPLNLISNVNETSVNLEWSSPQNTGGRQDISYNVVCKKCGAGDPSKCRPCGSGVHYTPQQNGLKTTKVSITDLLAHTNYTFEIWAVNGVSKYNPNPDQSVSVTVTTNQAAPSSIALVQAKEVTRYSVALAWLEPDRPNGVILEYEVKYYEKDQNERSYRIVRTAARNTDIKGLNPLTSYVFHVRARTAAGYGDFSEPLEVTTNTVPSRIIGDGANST

Row | Molecule | hEphA1-SEAP-: absorbance at 450 nm, percentage with respect to hEphA4-SEAP-His as 100% (human EphA1) [%] | hEphA2-SEAP-: absorbance at 450 nm, percentage with respect to hEphA4-SEAP-His as 100% (human EphA2) [%] | hEphA4-SEAP-: absorbance at 450 nm, percentage with respect to hEphA4-SEAP-His as 100% (human EphA4) [%] | hEphA6-SEAP-: absorbance at 450 nm, percentage with respect to hEphA4-SEAP-His as 100% (human EphA6) [%] | hEphA8-SEAP-: absorbance at 450 nm, percentage with respect to hEphA4-SEAP-His as 100% (human EphA8) [%]
1 | 81 (antibody, V domains shown, constant regions without entry; synthetic humanized antibody light chain variable region sequence; synthetic humanized antibody heavy chain variable region sequence) VL: DIQMTQSPSSLSASVGDRVTITCRASENIYRNLAWYQQKPGKAPKLLLYAATNLADGVPSRFSGSGSGTDYTLTISSLQSEDFATYYCQHFWGTPWTFGQGTKVEIK VH: QVQLVQSGSELKKPGASVKVSCKASGYTFTDYSMHWVRQAPGQGLEWMGWINTETGEPTYAQGFTGRFVFSLDTSVSTAYLQISSLKAEDTAVYYCARIPLYYYGSRYWYFDVWGQGTTVTVSS | 4.4 | 4.8 | 100 | 8.8 | 5.2
2 | 82 (antibody, V domains shown, constant regions without entry; synthetic humanized antibody light chain variable region sequence; synthetic humanized antibody heavy chain variable region sequence) VL: DIQMTQSPSSLSASVGDRVTITCRASENIYRNLAWYQQKPGKAPKLLLYAATNLADGVPSRFSGSGSGTDYTLTISSLQSEDFATYYCQHFWGTPWTFGQGTKVEIK VH: QVQLVQSGSELKKPGASVKVSCKASGYTFTDYSMHWVRQAPGQGLKWMGWINTETGEPTYAQGFTGRFVFSLDTSVSTAYLQISSLKAEDTAVYYCARIPLYYYGSRYWYFDVWGQGTTVTVSS | 5.4 | 5.4 | 100 | 8.7 | 5.8
3 | 86 (antibody, V domains shown, constant regions without entry; synthetic humanized antibody light chain variable region sequence; synthetic humanized antibody heavy chain variable region sequence) VL: DIQMTQSPSSLSASVGDRVTITCRASENIYRNLAWYQQKPGKAPKLLLYAATNLADGVPSRFSGSGSGTDYTLTISSLQSEDFATYYCQHFWGTPWTFGQGTKVEIK VH: QIQLVQSGSELKKPGASVKVSCKASGYTFTDYSMHWVRQAPGQGLKWMGWINTETGEPTYADDFKGRFVFSLDTSVSTAYLQISSLKAEDTAVYYCARIPLYYYGSRYWYFDVWGQGTTVTVSS | 5.9 | 5.7 | 100 | 8.6 | 5.7

The remaining lines, values ahead:

Row | hEphA1-SEAP-: absorbance at 450 nm, percentage with respect to hEphA4-SEAP-His as 100% (human EphA1) [%] | hEphA2-SEAP-: absorbance at 450 nm, percentage with respect to hEphA4-SEAP-His as 100% (human EphA2) [%] | hEphA4-SEAP-: absorbance at 450 nm, percentage with respect to hEphA4-SEAP-His as 100% (human EphA4) [%] | hEphA6-SEAP-: absorbance at 450 nm, percentage with respect to hEphA4-SEAP-His as 100% (human EphA6) [%] | hEphA8-SEAP-: absorbance at 450 nm, percentage with respect to hEphA4-SEAP-His as 100% (human EphA8) [%] | Molecule
4 | 5.7 | 5.5 | 100 | 9.5 | 5.5 | 69 (antibody, V domains shown, synthetic humanized antibody heavy chain variable region sequence; synthetic humanized antibody light chain variable region sequence) VH: QIQLVQSGSELKKPGASVKVSCKASGYTFTDYSMHWVRQAPGQGLKWMGWINTETGEPTYADDFKGRFVFSLDTSVSTAYLQISSLKAEDTAVYYCARIPLYYYGSRYWYFDVWGQGTTVTVSS VL: DIQMTQSPSSLSASVGDRVTITCRASENIYRNLAWYQQKPGKAPKLLVYAATNLADGVPSRFSGSGSGTDYTLTISSLQPEDFATYYCQHFWGTPWTFGQGTKVEIK
5 | 5.7 | 5.8 | 100 | 7.5 | 6.0 | 83 (antibody, V domains shown, constant regions without entry; synthetic humanized antibody light chain variable region sequence; synthetic humanized antibody heavy chain variable region sequence) VL: DIQMTQSPSSLSASVGDRVTITCRASENIYRNLAWYQQKPGKAPKLLLYAATNLADGVPSRFSGSGSGTDYTLTISSLQSEDFATYYCQHFWGTPWTFGQGTKVEIK VH: QIQLVQSGSELKKPGASVKVSCKASGYTFTDYSMHWVRQAPGQGLKWMGWINTETGEPTYAQGFTGRFVFSLDTSVSTAYLQISSLKAEDTAVYYCARIPLYYYGSRYWYFDVWGQGTTVTVSS
6 | 5.2 | 4.9 | 100 | 6.0 | 5.3 | 84 (antibody, V domains shown, constant regions without entry; synthetic humanized antibody light chain variable region sequence; synthetic humanized antibody heavy chain variable region sequence) VL: DIQMTQSPSSLSASVGDRVTITCRASENIYRNLAWYQQKPGKAPKLLLYAATNLADGVPSRFSGSGSGTDYTLTISSLQSEDFATYYCQHFWGTPWTFGQGTKVEIK VH: QVQLVQSGSELKKPGASVKVSCKASGYTFTDYSMHWVRQAPGQGLEWMGWINTETGEPTYADDFKGRFVFSLDTSVSTAYLQISSLKAEDTAVYYCARIPLYYYGSRYWYFDVWGQGTTVTVSS
7 | 5.0 | 5.1 | 100 | 6.2 | 5.5 | 85 (antibody, V domains shown, constant regions without entry; synthetic humanized antibody light chain variable region sequence; synthetic humanized antibody heavy chain variable region sequence) VL: DIQMTQSPSSLSASVGDRVTITCRASENIYRNLAWYQQKPGKAPKLLLYAATNLADGVPSRFSGSGSGTDYTLTISSLQSEDFATYYCQHFWGTPWTFGQGTKVEIK VH: QVQLVQSGSELKKPGASVKVSCKASGYTFTDYSMHWVRQAPGQGLKWMGWINTETGEPTYADDFKGRFVFSLDTSVSTAYLQISSLKAEDTAVYYCARIPLYYYGSRYWYFDVWGQGTTVTVSS
